Data reported in PMC4834876.

Biological target: F-actin (filamentous actin) from rabbit muscle (rabbit), P68135
Experiment: co-sedimentation
Conditions: remark: other sources report otherwise

- percent co-pelleted (with APC-C1 added): 50%
B1: EB1 full-length (end-binding protein 1), wild type, Q15691 1-268 (natural protein)
chain: MAVNVYSTSVTSDNLSRHDMLAWINESLQLNLTKIEQLCSGAAYCQFMDMLFPGSIALKKVKFQAKLEHEYIQNFKILQAGFKRMGVDKIIPVDKLVKGKFQDNFEFVQWFKKFFDANYDGKDYDPVAARQGQETAVAPSLVAPALNKPKKPLTSSSAAPQRPISTQRTAAAPKAGPGVVRKNPGVGNGDDEAAELMQQVNVLKLTVEDLEKERDFYFGKLRNIELICQENEGENDPVLQRIVDILYATDEGFVIPDEGGPQEEQEEY
